Results reported in the NTF2 design screens of Basanta et al. (2020).

test: protease stability score; higher = more stable; yeast display proteolysis, trypsin and chymotrypsin;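 note: relative to predicted unfolded state with 0 unfolded-like and 1 meaning tenfold more protease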

Row | Sequence | protease stability score
1 | TEEEELLKKFMKDFIQKHVTGDWDSLYKMADPDVKWHINGQQSIGREEVHRMWSEKLKRIDHIEHFHDESIHVIDGRVTLRGRITGNVDGRRYDVEVDFHLFVVDGKLKQFHVHHQ | 0.849
2 | HEENKELEDLLRVWMELVETGDEEELLKLADPDWRLDINGRRIHGRDKVLTWLREHREKLGVDHRHLFLKDVRTVNGRVDANGENEVQVNGKRIVIDIRFHLVVINGRIHMISLRLH | 1.15
3 | HEMKEESEKAVRLMVHLFKTGDEETIYRMADPNARFFFDGRHIHGMDHVFREVLRLEREYGVKHFELRDMELRIFDGRIFLHIDGVEEFNGRRLETHLHFESRKIDGRWHFQSESIVLR | 0.317
4 | QEYDEHIEELWRDFVHAMITGDEDRLSELMDPDTRILVGDKHLVGWDRALRFLHEHIREIRPTDFKLRDIRFFDGRIHVDTEMRLVVNGQEVHKKTHLIVYKYDGRWHIEAIIEH | 2.24
5 | DEEHEELKKMVQHSLQLLMTGDEETIYHLLDPHAKVIINGVEYHGMSLSAKIMIKMARDLGVERFEVHLEHSRWFDGRVDVHISRRVNGQTEEVHINSKKINGRWHLKSIIFN | 1.06
6 | SEEEEMLKIALRIMLHTIHTGDEDLFSELADPNVKIKIDGVELVGWEFAHEWMREHIEQVPNVKLKIHSVKTIDGRVDSDLIRIFDGVTHKIRLISHKINGRWLIETITVN | 0.964
7 | DEREEEARKWIELFLRHLLTGDEDSLQELADPHTRNIVGDKDLIGWRFMIKYVRDVRERFDHIEFHITRMEVQGDKVRVDVRIINIVGDKHFEIESHIVTEKINGKWRLKSMELR | 1.51
8 | TDERDRYKHFLHLFRHLIKTGDEDVLANNADPHVKFHIHIGDKEREHHGMESMVKIFKEWRIHHLHIESFDVQGDKLIALVHVDGIINGRHHSTTVNIILTFVNGREKEVNIHLT | 1.74
9 | TEDEELSHEIFEIWERVRRTGDEHTLERLADPNMRVHIDGQDYHGREMLFEFLNRFKGLKSDIHDMRIEIVGDYIILNIKVHITVNGREIHLTIHLHSRKFNGKWHLKELEIRKI | 1.32
10 | SETEENAEHVVREWFEMITTGDEDEVLRLMDPHVRVRIGDKIIHGREIFLAHMRHWRIKNKHFEIEHMHFYGDKAVLDGRLVGEETVDGKHRTYDRRVDFNLVKIDGKWHIREFHVD | 1.52
11 | NEEEKIIKKDIEKEITAWETGDFDTLDHLLDPHARMDINGKDLHGREVLKTHFHEEWNRLGLEKVEIHIQDFRVIDGRVHIDGYMNVNGRHQKVRFIARKVNGRWIIHEVEFR | 1.32
12 | SDEDEDARRVMELLLELFETGNWRELSKLADPHVRMEIDGQDFHGRELFEHFVRELIEKFKGAKLELRVHTLDLINGVMYSDIHIHLNVNGRKLDIRSHFRILKIDGRWLTRSFHFK | 1.25
13 | TEEKEDKDRWYEEVLRAVLTGDFHFLSRLADPDVRVEYGDKEHVGREEVSRFWQEFFERIKNVTIELHDYKVQGDKIHWLINLRFNGREHIVHIELIIIDGRIHEIRVQIR | 2.02
14 | SQEEKEIRDWLHILANARLTGDEDWLLKQADPNTRLEFNGVDLVGMEHNIKFLLHLERQHGMRLHNIHIHHVEVQGDKVESDIREDGEVNGRRMIFTSIIIVRKVNGRWILRSFHLH | 1.21
15 | SEEEEEVLRFLKEWIHRLRTGDEDILRELLDPDVRIEAENRESHGREEATRLLSEIRFEHFFIESIKVQGNKVSIHGRVHGVINGKKFKHHIHIILVKVNGKWQFREIDIH | -0.107
16 | SEKDDFLEQLQKLWHEILVTGDEHRLKKLADPDMRFIYGDFESIGREEFLQMMRDMLREIRITHIELRTFDAYDGQLIILTTQHVSIGDKRIELTVHLFWIKVDGKWKLRRLKFE | 1.79
17 | SEDEENVEKFVRELIHNSRTGDEEKFMSLLDPNTRIHVDGRTFHGMELASEALKLLGVKVFHVHRIKVVGEWAHVDGEVNFNGKDHKVSFHSRKVNGQWLLESVEIQ | 1.22
18 | SEEEELLRRLFELFYKIWHTGDFRSLYENADPNTQLDVGDKRFHGMEVVIEALRQIWEKFGFKVELIDEHHVINGQINMDGLLDINGKKMKTHINLRLIDGVMKTIRIDIR | 0.049
19 | DEDQEIVERFTSLINHLILTGDEEEMKKLLDPNARWIYGDKHIHGRDEFIELLRQIKNVKTRFYIRHIDVINGKLVMHVEIELEFNGKRDHLRQIIISEKVDGRWRAKEFETR | 0.66
20 | SEDEEAAKHMFELLVHHIETGDEESLRKLLDPNVRMDIDGRIIHGREIFARQMFLESLHIRTEFRLKHVDTIGEKLHLFTEVTYKINGVHIKRDTRVIILKVDGRWVFHSIRFE | 0.951
21 | DEFHHSVELAIRIIFEILRTGDEHHMDTMADPDVRIIIGDKHNVGRELVKDVMRRLVTEWRIRHWEIKNSHLIGDKLLVDSHVEVEVGDFNLRTDVHLVFTKINGRWTLHSHHID | 1.09
22 | SEEEEESRKMLELFKELLETGDEEDMTKLADPNVRIIYDGKHLHGRHVAHDVWHELSNRVKNAKFHFDVIKIVGEKVILEITIHVDGQDIESSTILDKFNGKWYMEEVFFH | 1.92
23 | SEDEKEMKQALEHWLELLTTGNEEENEKLADPDVRLNFNGKEFHGWKLYREFLSRIKNATIRIREVRVVNGKVTVISELRIGDKVFEVQIHLKKVNGKWYVEEEHIH | 1.61
24 | SELEKDQEDFVRIVEEMMNTGDEHVFKNLADPHVRNDVNGKDVHGRELVTKIWHFLLRHLGINHIELKHVEIYGNKVIIHMEERVGDKRVELVIVAEKVNGKWYLSEIRFEHK | 1.28
25 | SEDEELAKRIAKLWIELHLTGNEDTIKQLMDPRVLVRIHINGVDIHLHGREHVIRHHRETMKHLGWSKVHLELKDSKFIGEYLHMDVRMNVNGQEHHVELEIIVINGRMKEIRINIE | 2.02

Row | Sequence | protease stability score
26 | DEDEERMEHMIHLLDHALETGDWRTISKLIDPHVRLEVNGVNFVGREEIITFLLEIRMSSRIHIKDFRVVGDKLEMEIDSHIDLHYNGKTYQTRVESRLIIKKVNGRWILQESSER | 1.15
27 | NETEELLRRMIEDNLRAMLTGDEERIRKLADPNVRNHINGRTHVGREELAHVFHRIFEEWRIDHMTLRDSDTQGEFIILHYIFDIRFDGRRQELEVEIIFYKIDGRWILHKITFK | 0.75
28 | DEDTKLVEEFLRDWLRALLTGDEEHLHKLLDPNTRVEINGQEFHGREMEVELMRHWRLDHIDIREIRITIIGNKVENHVRGRVDGEFDGRKINRETKLVNYVVKVNGRWLFHSMELRTH | 1.35
29 | DEDTEQVERALHLWVKLVQTGNEEVIRHLLDPNVRIIVNGVDYHGRSALDELQRRVDVNTWKRVRLHDASVYNGRMHIDGEIDTQEIVGDKRIIIHTKVDMVSSKVNGKWIFHSMIFH | 0.848
30 | DEHRELIKEMLERFERSLRTGDEHIQTEMMDPDAKIDINGVELHGRDWASRYIQKYKNVRIEVRTITIQGDKVDIHSTIIIGDKHHSMIIHARKVDGKWVLEEMWVE | 0.613
31 | DDRESIAEAVIRHMVEDFRTGNEDNMKRLFDPNTQLRYGDKTHHGWEDVVELLYHDIKHFGIKHVSVDRISVIGEKIHIDMRVEVGDKELTLHFTVDKINGKWKFESVERR | 0.849
32 | SEEDKTALEMFERLIHAWLTGDEDEMRRMADPHVKIDKEFENHEVQFHGREDFVRWVIEVRDRIDHLEIRNHSIRTWNGVVHVHTTLFLNYDGKLFILRTEFRLFVIDGRLREERFMLH | 0.282
33 | DEEHKEREDVAREIITLLLTGDEEIWLSMMDPHTRININGKYAIGRENIEEIIKDLLRRIPNIRIIMQDMKIQGDKVTIHGIHNVNGREHEWRVHIISVNGRIKSIEVRIH | 1.47
34 | SETDESSRVASELMREWLETGDEEVISELADPHVRFDWNGRRDIGRHSYLEFMHMLRRHMGIKHIEFKRIEVHVINGVVHVNITGILHFNGVQLTTHIHIHAEKIDGRWILKQSHYDTE | 0.751
35 | DEDTEAAIRILEDFTRHILTGDFERARELLDPHTRFDVNGVDLHGMDEVTRLLRIWKKRFDVWESDVHDVRSYDGRIHIDTHLRVRYDGVEEHTRTIFIFNKVNGRWLIEEIRVR | 1.44
36 | DESEEHSEIMLRILHHALRTGDEEEITRLLDPHVRVIIGDKHYHGWEDYVKTVFTTAKEMRMHIHITDSKVQGNYVHLDTRLLIHYNGKTFTYNTRLVTVKVNGQWRLHSETSH | 1
37 | DEEDHHLRQIFEELLRALVTGDEEFLEQMADPRTRFILIIDGRRIEWHGREEFFRHFHEWRLRNYRITHLESYNGRIRVEGEVDENFNGKERHTKTHHTIIVINGRLHSIVLNIH | 1.72
38 | DEEREIIETFFRESLEVIKTGDWKTFDDLLDPRARLNIGDKDYHGRHEIVRQWHKQFKDLGVDHIENKDLRIFDGKIETHFDLEVGDKRIHLEFHATKIDGRWLFHEIRVQ | 1.97
39 | HEKKEAYDYMVEILWKAMHTGDEKTLKHLFDPHTKVTQGDFEIHGMEQFSEHLKHARYRRVRVKFEDSHTQGEKVRMHTRLEFEGEIDGKRDTLEFETHQIVTKIDGRWVFESLEIE | 0.7
40 | DELEELEKEAIKESEDILRTGDEERILRLADPNVRVDIDGVVRHGREWWTRLFSDELRKFKGARIRLKEIRSFDGRIRIDTTLEVDGVTRDMYVISEKVNGRWIIRSIHYE | 1.33
41 | DEQEELSQLLAEIVIELTKTGDEHTLERLMDPHVRANINGVELHGRKKVREFLEEWLRRVKNVRLHIDDRTVQGEKIIVDGTWNVGDKSFRIEFIVIIINGRHTSFNVLDI | 1.51
42 | TEEQEESTRAYEEILQYIRTGDERQMTKYADPHVKLIFNGKEIHGREMFVELVKQYGIDHHHIHNWDFINGRVRMETHVRQGDKHDNAHIDMTKFDGKWIVRLFVFV | 0.856
43 | TEEEREFKEFVEHWMRAIETGDEELLYKLLDPNTQLNYNGVNNHGWHVIKHLEELLGIKVREMRIRDFHHIGDKIVLDVEDIIRIDGRTIILRTEILIVKVDGRWHLKSERVK | 0.965
44 | DEEKEEADEHIRLLIDVMKTGDEDSMRRLIDPNVRIRVDGKEDHGMEKLVHLLRHARYREVRIEHVEHQGEKVIIHYKAWVEIDGQENHKKWHFIVTKVDGKWTLKEVSVH | 2.3
45 | SESEHKAREMIRLIEHFLITGDEESWHRLFDPHTRVVIDGREIHGMEIYNHWLKELRIRDSHIHIRTIEDINGRINIHGELQLHGIINGQTHDFRSHIDLHVLKFNGRWHMETYIIS | 1.57
46 | DEEEERRRHLIDVLLRLWHTGDEESFTNLADPHVRIHVGDKIFHGREAASRWMHNVREHWRLHHERDHDVKIQGEKVVRDGHVDIEFNGVRVRTRVEIILTVVNGQIKLIEIRIL | 1.26
47 | SEDEKEDHELSRHVIETLKTGDWELLSELADPHVRLKVNGKTYIGRELFTETVRRLLDRFKNMTLKIEDIKTVDGRLEIHIFLIVGDKFFELIIIATKVDGRWFEEEMHVHHS | 0.915
48 | DEEEELARRASRKLIELMLTGDEDSLEEMLDPNVKVQIGDKELHGRIAIEIMSRQFKNVRIEVKRLSVQGNYVDLDVRVNINGVWVEQRIQIEKVDGRWTLKENTIV | 2.23
49 | SDVEEMLHRIARLIVHNLFTGDWEDLVRMMDPHARYIVNGKESVGWRRVTEMLRRHHEELRIREIRIRHIEVYNGKAELHLEVNEEVNGREVSLDTRLHVLTINGVIRSIHIEVE | 0.719
50 | SEVEESAKIIAELWAHSVETGDEHTLRELMDPNTRFEYGDKERHGRENVTKYFLHFQKWLGFKHIRLEIEDSKAIGDKIKIDLTIKLHQGEKHDFVIVQLFVTKVNGRWVIHSMIVH | 1.58
